According to FireProtDB:
Several values for one entry are separate records, joined by “and”; a condition that tells them apart may be missing. Identical values can stand only once.

Details: whole UniProt chain shown
[1] = Hirudo medicinalis, pH 5.4, 25 °C, GdnHCl, CD, KH2PO4-NaOH 10 mM, reversible: yes
[2] = Gallus gallus, pH 7, 25 °C, GdnHCl, Fluorescence, Phosphate 10 mM, NaCl 50 mM
[3] = Homo sapiens, pH 7, 37 °C, GdnHCl, CD, Sodium phosphate 100 mM, reversible: Yes
[4] = Homo sapiens, pH 7, 25 °C, Urea, CD, Tris-HCL, Nacl, transition: 2, reversible: yes
[5] = Homo sapiens, pH 7, 25 °C, Urea, Fluorescence, Tris-HCl, NaCl, transition: 2
[6] = Homo sapiens, pH 7, 25 °C, Urea, fluorescence, Tris-HCL, Nacl, transition: 2, reversible: yes
[7] = Homo sapiens, pH 7, Thermal, DSC, Potassium phosphate buffer, NaCl, reversible: yes
[8] = Homo sapiens, pH 5.3, Thermal, DSC, acetate 20 mM
[9] = Homo sapiens, pH 6.5, 25 °C, Urea, CD, Sodium phosphate 20 mM, NaCl 100 mM

B1: Eglin C wild type, P01051 (protein)
chain: TEFGSELKSFPEVVGKTVDQAREYFTLHYPQYDVYFLPEGSPVTLDLRYNRVRVFYNPGTNVVNHVPHVG
- denaturant m value [1]: 3.87 kcal/mol/M
- unfolding free energy [1]: 6.5 kcal/mol

B2: Riboflavin-binding protein wild type, P02752 (protein)
chain: MLRFAITLFAVITSSTCQQYGCLEGDTHKANPSPEPNMHECTLYSESSCCYANFTEQLAHSPIIKVSNSYWNRCGQLSKSCEDFTKKIECFYRCSPHAARWIDPRYTAAIQSVPLCQSFCDDWYEACKDDSICAHNWLTDWERDESGENHCKSKCVPYSEMYANGTDMCQSMWGESFKVSESSCLCLQMNKKDMVAIKHLLSESSEESSSMSSSEEHACQKKLLKFEALQQEEGEERR
- denaturant m value [2]: 4.14 kcal/mol/M
- unfolding free energy [2]: 2.78 kcal/mol

B3: Gamma-crystallin S wild type, P22914 (protein)
chain: MSKTGTKITFYEDKNFQGRRYDCDCDCADFHTYLSRCNSIKVEGGTWAVYERPNFAGYMYILPQGEYPEYQRWMGLNDRLSSCRAVHLPSGGQYKIQIFEKGDFSGQMYETTEDCPSIMEQFHMREIHSCKVLEGVWIFYELPNYRGRQYLLDKKEYRKPIDWGAASPAVQSFRRIVE
- denaturant m value [3]: 4.6 kcal/mol/M and 2.9 kcal/mol/M
- denaturant midpoint (higher = more stable) [3]: 2.3 M and 1.7 M
- unfolding free energy [3]: 10.5 kcal/mol and 4.9 kcal/mol
- Tm (Homo sapiens, pH 7.4, Thermal, Fluorescence, Disodium phosphate, NaCl): 67.5 °C and 65.8 °C

B4: Frataxin, mitochondrial wild type, Q16595 (protein)
chain: MWTLGRRAVAGLLASPSPAQAQTLTRVPRPAELAPLCGRRGLRTDIDATCTPRRASSNQRGLNQIWNVKKQSVYLMNLRKSGTLGHPGSLDETTYERLAEETLDSLAEFFEDLADKPYTFEDYDVSFGSGVLTVKLGGDLGTYVINKQTPNKQIWLSSPSSGPKRYDWTGKNWVYSHDGVSLHELLAAELTKALKTKLDLSSLAYSGKDA
- denaturant midpoint (higher = more stable) [4]: 4.92 M
- unfolding free energy [4]: 9 kcal/mol
- denaturant midpoint (higher = more stable) (Homo sapiens, pH 7, 25 °C, Urea, CD, Tris-HCl, NaCl, transition: 2): 4.92 M
- denaturant midpoint (higher = more stable) [5]: 4.94 M
- unfolding free energy [5]: 9.1 kcal/mol
- denaturant midpoint (higher = more stable) [6]: 4.94 M
- unfolding free energy [6]: 9.1 kcal/mol
- Tm (Homo sapiens, pH 7, Thermal, CD, Sodium phosphate buffer, NaCl): 69.4 °C
- Tm (Homo sapiens, pH 7, Thermal, CD, sodium phosphate, Nacl, transition: 2): 69.4 °C

B5: Protein CutA wild type, O60888 (protein)
chain: MSGGRAPAVLLGGVASLLLSFVWMPALLPVASRLLLLPRVLLTMASGSPPTQPSPASDSGSGYVPGSVSAAFVTCPNEKVAKEIARAVVEKRLAACVNLIPQITSIYEWKGKIEEDSEVLMMIKTQSSLVPALTDFVRSVHPYEVAEVIALPVEQGNFPYLQWVRQVTESVSDSITVLP
- Tm [7]: 96.4 °C
- unfolding enthalpy (calorimetric) [7]: 284 kcal/mol
- unfolding free energy [7]: 0 kcal/mol
- denaturant midpoint (higher = more stable) (Homo sapiens, pH 8, 37 °C, GdnHCl, CD, Tris-HCl buffer, NaCl, transition: 2, reversible: yes): 2.38 M

B6: Cystatin-B wild type, P04080 (protein)
chain: MMCGAPSATQPATAETQHIADQVRSQLEEKENKKFPVFKAVSFKSQVVAGTNYFIKVHVGDEDFVHLRVFQSLPHENKPLTLSNYQTNKAKHDELTYF
- Tm [8]: 50.2 °C
- heat capacity change of unfolding [8]: 1.6 kcal/mol/K
- unfolding enthalpy (calorimetric) [8]: 70 kcal/mol

B7: Gamma-crystallin D wild type, P07320 (protein)
chain: MGKITLYEDRGFQGRHYECSSDHPNLQPYLSRCNSARVDSGCWMLYEQPNYSGLQYFLRRGDYADHQQWMGLSDSVRSCRLIPHSGSHRIRLYEREDYRGQMIEFTEDCSCLQDRFRFNEIHSLNVLEGSWVLYELSNYRGRQYLLMPGDYRRYQDWGATNARVGSLRRVIDFS
- denaturant midpoint (higher = more stable) (Homo sapiens, pH 7, 25 °C, GdnHCl, Fluorescence, NaPO4 10 mM, reversible: yes): 3.7 M
- denaturant midpoint (higher = more stable) (Homo sapiens, pH 7, 37 °C, GdnHCl, Fluorescence, NaPO4 10 mM, reversible: yes): 2.7 M
- Tm (Homo sapiens, pH 7, Thermal, ANS fluorescence, PBS, transition: 2, reversible: yes): 76.6 °C
- Tm (Homo sapiens, pH 7, Thermal, CD, PBS, transition: 2, reversible: yes): 80 °C

B8: Glutathione S-transferase A1 wild type, P08263 (protein)
chain: MAEKPKLHYFNARGRMESTRWLLAAAGVEFEEKFIKSAEDLDKLRNDGYLMFQQVPMVEIDGMKLVQTRAILNYIASKYNLYGKDIKERALIDMYIEGIADLGEMILLLPVCPPEEKDAKLALIKEKIKNRYFPAFEKVLKSHGQDYLVGNKLSRADIHLVELLYYVEELDSSLISSFPLLKALKTRISNLPTVKKFLQPGSPRKPPMDEKSLEEARKIFRF
- denaturant m value [9]: 4.2 kcal/mol/M
- denaturant midpoint (higher = more stable) [9]: 4.6 M
